# Reference: publication PMC4118853, “Phage Orf Family Recombinases: Conservation of Activities and Involvement of the Central Channel in DNA Binding” (PLoS ONE, 2014)
# Residue numbers refer to the chain shown, from its start.
# T1: MBP-Orf Q45A (Bacteriophage lambda, UniProt P03765 1-146, Q45A)
# T1 sequence: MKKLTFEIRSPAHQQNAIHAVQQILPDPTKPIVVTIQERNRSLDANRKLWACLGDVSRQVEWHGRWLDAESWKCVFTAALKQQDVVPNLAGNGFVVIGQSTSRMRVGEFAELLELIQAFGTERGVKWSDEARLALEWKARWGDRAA
# T2: MBP-Orf V106E (Bacteriophage lambda, UniProt P03765 1-146, V106E)
# T2 sequence: T1 sequence with A45Q, V106E
# T3: MBP-Orf W137A (Bacteriophage lambda, UniProt P03765 1-146, W137A)
# T3 sequence: T1 sequence with A45Q, W137A
# T4: MBP-Orf (Bacteriophage lambda, UniProt P03765 1-146)
# T4 sequence: T1 sequence with A45Q
# T5: MBP-Orf W50A (Bacteriophage lambda, UniProt P03765 1-146, W50A)
# T5 sequence: T1 sequence with A45Q, W50A
# T6: MBP-YbcN (Escherichia coli cryptic prophage DLP12 …, UniProt Q47269 1-151)
# T6 sequence: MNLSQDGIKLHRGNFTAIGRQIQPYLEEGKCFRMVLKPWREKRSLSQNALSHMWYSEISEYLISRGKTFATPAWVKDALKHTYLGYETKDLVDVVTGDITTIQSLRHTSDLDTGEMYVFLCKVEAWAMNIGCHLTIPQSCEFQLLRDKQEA
# T7: MBP-Orf K48A (Bacteriophage lambda, UniProt P03765 1-146, K48A)
# T7 sequence: T1 sequence with A45Q, K48A
# T8: MBP-Orf R103E (Bacteriophage lambda, UniProt P03765 1-146, R103E)
# T8 sequence: T1 sequence with A45Q, R103E
# B1: MBP-YbcN (E. coli maltose binding protein fused to the N-terminus of DLP12 YbcN) (natural protein, E. coli (cryptic prophage DLP12), UniProt Q47269 1-151, looked up)
# chain: T6 sequence
# notes: YbcN (orf151), Orf-family protein of E. coli cryptic prophage DLP12; the gene was amplified from AB1157 genomic DNA, forward primer at the ATG; predicted monomer of the MBP fusion 60.4 kDa; Construct in pMALc2; also called DLP12 MBP-YbcN; orf151; source: E. coli DH5α or BL21 (DE3) Rosetta carrying pLB101, purified (amylose; additional stocks amylose and heparin agarose)
# B2: GST-YbcN (N-terminal glutathione S-transferase fusion of DLP12 YbcN) (natural protein, E. coli (cryptic prophage DLP12), UniProt Q47269 1-151, looked up)
# chain: T6 sequence
# notes: YbcN (orf151), Orf-family protein of E. coli cryptic prophage DLP12; insert of pLB101 moved into pGEX-6P-1; predicted monomer of the GST fusion 44.6 kDa; higher oligomers are put down to dimer-dimer combinations; also called DLP12 GST-YbcN; source: E. coli BL21 Codon Plus carrying pLB108, purified (glutathione sepharose, heparin agarose, Q sepharose); not shown: GST, N-terminal, kept
# B3: MBP-Orf (bacteriophage λ Orf fused to maltose binding protein), wild type (natural protein)
# chain: T1 sequence with A45Q
# notes: Orf (NinB) of bacteriophage λ, a 17 kDa protein; predicted MBP-Orf monomer 59.6 kDa; also called Orf wt; λ MBP-Orf; source: purified as described [13]
# B4: SS60-fluorescein (ssDNA)
# DNA: TTTGGTCTAACTTTACCGCTACTAAATGCCGCGGATTGGTTTCGCTGAATCAGGTTATTA
# B5: DS60 (dsDNA)
# DNA 1: B4 DNA
# DNA 2: TAATAACCTGATTCAGCGAAACCAATCCGCGGCATTTAGTAGCGGTAAAGTTAGACCAAA
# B6: MMT:G-fluorescein (dsDNA)
# DNA 1: B4 DNA
# DNA 2: B5 DNA 2 with C28T
# B7: BB20-fluorescein (structured_DNA)
# DNA 1: B4 DNA
# DNA 2: TAATAACCTGATTCAGCGAATGACCGATAACGTCCACTTGAGCGGTAAAGTTAGACCAAA
# B8: MMG:G (dsDNA)
# DNA 1: B4 DNA
# DNA 2: B5 DNA 2 with C28G
# Key:
# [1] = molecular target: T9, E. coli SSB (single-stranded DNA binding protein), wild type (E. coli, UniProt P0AGE0 1-178); experiment: far-Western; purified SSB wt or mutant (0.5-5 µg) separated on 15% SDS-PAGE, blotted to PVDF, probed with 20-30 µg YbcN or Orf fused to MBP or GST; detected with anti-MBP or anti-GST antibodies; details: both partners purified
# T9 construct: also called wt SSB; source: purified as described [13]
# T9 sequence (P0AGE0 whole entry, the tested form may be a part): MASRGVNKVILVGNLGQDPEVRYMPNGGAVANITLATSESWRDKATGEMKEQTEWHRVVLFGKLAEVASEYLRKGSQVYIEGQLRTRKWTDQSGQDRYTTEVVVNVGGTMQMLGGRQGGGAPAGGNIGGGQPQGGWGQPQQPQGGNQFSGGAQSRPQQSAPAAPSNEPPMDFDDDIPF
# [2] = molecular target: the molecule itself; experiment: SEC; 1 mg/ml protein on a 24 ml Superose 6HR 10/30 column in 20 mM Tris-HCl pH8, 1 mM EDTA, 0.5 mM DTT, 250 mM KCl
# [3] = molecular target: T9, E. coli SSB (single-stranded DNA …); experiment: ELISA; SSB wt or mutant (0.5 µg) bound to the microtitre plate in PBS, GST fusion added for 1 hr at 37°C, detected with HRP-anti-GST antibody, A620nm; details: both partners purified
# [4] = molecular target: the molecule itself; experiment: SDS-PAGE of unboiled samples; purified protein on 12.5% SDS-PAGE without boiling and without a reducing agent, Coomassie blue
# [5] = molecular target: the molecule itself; experiment: static light scattering; 0.2 mg/ml protein in 100 mM Tris-HCl pH 7 at 25°C, Zetasizer µV; mass estimated for a spherical particle
# MBP-Orf Q45A = molecular target: T1, MBP-Orf Q45A; experiment: fluorescence anisotropy; apparent, per dimer; EMSA: 50 mM Tris-HCl pH 8.0, 5 mM EDTA (or 1 mM MgCl2), 1 mM DTT, 5% glycerol, 100 ug/ml BSA, on ice 15 min, 4% PAGE; anisotropy: 100 mM Tris-HCl pH 7.0, 10 nM; details: protein: recombinant, tags: N-terminal MBP, chain copies: 2
# MBP-Orf V106E = molecular target: T2, MBP-Orf V106E; experiment: as above; details: protein: recombinant, tags: N-terminal MBP, chain copies: 2
# MBP-Orf W137A = molecular target: T3, MBP-Orf W137A; experiment: as above; details: protein: recombinant, tags: N-terminal MBP, chain copies: 2
# MBP-Orf [6] = molecular target: T4, MBP-Orf; experiment: as above; details: protein: recombinant, tags: N-terminal MBP, chain copies: 2
# MBP-Orf W50A = molecular target: T5, MBP-Orf W50A; experiment: as above; details: protein: recombinant, tags: N-terminal MBP, chain copies: 2
# MBP-YbcN [7] = molecular target: T6, MBP-YbcN; experiment: as above; details: protein: recombinant, tags: N-terminal MBP, chain copies: 2
# MBP-Orf K48A = molecular target: T7, MBP-Orf K48A; experiment: as above; details: protein: recombinant, tags: N-terminal MBP, chain copies: 2
# MBP-Orf R103E = molecular target: T8, MBP-Orf R103E; experiment: fluorescence anisotropy; dash in table; most severely deficient; EMSA: 50 mM Tris-HCl pH 8.0, 5 mM EDTA (or 1 mM MgCl2), 1 mM DTT, 5% glycerol, 100 ug/ml BSA, on ice 15 min, 4% PAGE; anisotropy: 100 mM Tris-HCl pH 7.0, 10 nM; details: protein: recombinant, tags: N-terminal MBP, chain copies: 2
# MBP-YbcN [8] = molecular target: T6, MBP-YbcN; experiment: EMSA; 5 mM EDTA; three complexes; EMSA: 50 mM Tris-HCl pH 8.0, 5 mM EDTA (or 1 mM MgCl2), 1 mM DTT, 5% glycerol, 100 ug/ml BSA, on ice 15 min, 4% PAGE; anisotropy: 100 mM Tris-HCl pH 7.0, 10 nM; details: protein: recombinant; tags: N-terminal MBP; chain copies: 2; label: 5'-32P on strand 1; blunt
# MBP-Orf [9] = molecular target: T4, MBP-Orf; experiment: fluorescence anisotropy; some preference over duplex control; data varied; EMSA: 50 mM Tris-HCl pH 8.0, 5 mM EDTA (or 1 mM MgCl2), 1 mM DTT, 5% glycerol, 100 ug/ml BSA, on ice 15 min, 4% PAGE; anisotropy: 100 mM Tris-HCl pH 7.0, 10 nM; details: protein: recombinant; tags: N-terminal MBP; chain copies: 2; label: 3'-fluorescein on strand 1; blunt, central single T:G mismatch
# MBP-YbcN [10] = molecular target: T6, MBP-YbcN; experiment: EMSA; 5 mM EDTA; no preference over DS60; EMSA: 50 mM Tris-HCl pH 8.0, 5 mM EDTA (or 1 mM MgCl2), 1 mM DTT, 5% glycerol, 100 ug/ml BSA, on ice 15 min, 4% PAGE; anisotropy: 100 mM Tris-HCl pH 7.0, 10 nM; details: protein: recombinant; tags: N-terminal MBP; chain copies: 2; label: 5'-32P on strand 1; blunt, central single G:G mismatch
# [11] = label: 3'-fluorescein, single strand
# [12] = label: 3'-fluorescein on strand 1, blunt, central 20 nt bubble
binder,measurement,setting,value
B1,binding result,[1],binds
same,stoichiometry N,[2],2
B2,binding result,[3],binds
same,stoichiometry N,[4],4
B3,binding result,[1],binds
same,binding result,[5],binds
B4,Kd,MBP-Orf Q45A; [11],272 ± 20.4 nM
same,Kd,MBP-Orf V106E; [11],522 ± 12.4 nM
same,Kd,MBP-Orf W137A; [11],628 ± 99.9 nM
same,Kd,MBP-Orf [6]; [11],223 ± 72.6 nM
same,Kd,MBP-Orf W50A; [11],3540 ± 288 nM
same,Kd,MBP-YbcN [7]; [11],4600 ± 275 nM
same,Kd,MBP-Orf K48A; [11],622 ± 0.7 nM
same,binding result,MBP-Orf R103E; [11],no binding
B5,binding result,MBP-YbcN [8],binds
B6,binding result,MBP-Orf [9],binds
B7,Kd,MBP-Orf Q45A; [12],264 ± 15.2 nM
same,Kd,MBP-Orf V106E; [12],540 ± 73.2 nM
same,Kd,MBP-Orf W137A; [12],285 ± 1.9 nM
same,Kd,MBP-Orf [6]; [12],173 ± 20.9 nM
same,Kd,MBP-Orf W50A; [12],1610 ± 418 nM
same,Kd,MBP-YbcN [7]; [12],1619 ± 3.2 nM
same,Kd,MBP-Orf K48A; [12],551 ± 6.4 nM
same,binding result,MBP-Orf R103E; [12],no binding
B8,binding result,MBP-YbcN [10],binds
